From patent US20210061891A1 come the findings set out here.

Residue numbers refer to the chain shown, from its start.

What all share (test): ELISA on streptavidin-immobilized biotinylated 15mer peptides; area under the signal vs antibody concentration curve
In general terms: In an ELISA, binding on a coated surface is turned into a signal by an enzyme label.

Experiment [1] addresses residue mutated to A: T.
Experiment [2] concerns the target residue mutated to A: N.
Experiment [3] addresses residue mutated to A: I.

B1: Ab7960/293i (antibody, V domains shown)
VH: LVESGGGVVQPGKSLRLSCVASGFSFSTYGMHWVRQAPGKGLEWVAVMSFDGKTKYYADSVKGRFTISRDNPKNTLYLQMNSLRSEDTAVYYCAKGGAAAAVFDSWGPGILLTVSS
VL: MTQSPNSLAVSLGGRATINCKASQSILYRSNNKNYLAWYQHKAGQPPKLLIYWASTRESGVPERFSGSGSRTDFTLTINGLQAEDVAVYYCQQYYNPPWTFGQGTKVEIK
As for B1, in experiment [1], the percent of binding to the natural peptide (AUC) is 4%.

B2: Ab7979 (antibody, V domains shown)
VH: B1 VH with S25T, P108Q
VL: B1 VL with A22T, A43P, G60R, E63D, N79S
B2 returned a percent of binding to the natural peptide (AUC) in experiment [1] of 34%.

B3: Ab7961/293i (antibody, V domains shown)
VH: B1 VH with S25T, T28S, P108Q
VL: B1 VL with A22T, A43S, E63D, N79S
Consider B3, for which, in experiment [2], the percent of binding to the natural peptide (AUC) was determined as 4%.

B4: Ab7955 (antibody, V domains shown)
VH: LVESGGGVVRPGRSLRLSCVASGFTFNAYGMHWVRQGPGKGLEWLAVISYEGKTVYYADSVKDRFTISRDNSRNTVSLHLNNLRGEDTAVYYCAKGSASAAVLQHWGQGTLVSVTS
VL: MTQSPGSLAVSLGSRATINCKSSRSLLYRSNNKNYLAWYQQKPGQSPRLLIYWASSRESGVPDRFSGGGSGTSFTLTISSLQAEDVAVYYCQQYFNPPWTFGQGTKVEIK
In turn, B4 came in with a percent of binding to the natural peptide (AUC) in experiment [3] of 8%.
